Measurements: US20260092100A1 (ICOSAVAX, published 2026)

T1: hMPV033 antigen (ectodomain 1-472 of the UT-A CL-28 hMPV F mutant fused to I53-50A) (human metapneumovirus, A strain)
T1 construct: A 6-Gly linker replaces the F1/F2 cleavage site; The stabilising mutations T127C, N153C, A185P, V231I, L219K, G294E, T365C and V463C are already in the entry; A GS linker and I53-50A follow; also called hMPV033 F protein; I53-50A-hMPV033
T1 chain: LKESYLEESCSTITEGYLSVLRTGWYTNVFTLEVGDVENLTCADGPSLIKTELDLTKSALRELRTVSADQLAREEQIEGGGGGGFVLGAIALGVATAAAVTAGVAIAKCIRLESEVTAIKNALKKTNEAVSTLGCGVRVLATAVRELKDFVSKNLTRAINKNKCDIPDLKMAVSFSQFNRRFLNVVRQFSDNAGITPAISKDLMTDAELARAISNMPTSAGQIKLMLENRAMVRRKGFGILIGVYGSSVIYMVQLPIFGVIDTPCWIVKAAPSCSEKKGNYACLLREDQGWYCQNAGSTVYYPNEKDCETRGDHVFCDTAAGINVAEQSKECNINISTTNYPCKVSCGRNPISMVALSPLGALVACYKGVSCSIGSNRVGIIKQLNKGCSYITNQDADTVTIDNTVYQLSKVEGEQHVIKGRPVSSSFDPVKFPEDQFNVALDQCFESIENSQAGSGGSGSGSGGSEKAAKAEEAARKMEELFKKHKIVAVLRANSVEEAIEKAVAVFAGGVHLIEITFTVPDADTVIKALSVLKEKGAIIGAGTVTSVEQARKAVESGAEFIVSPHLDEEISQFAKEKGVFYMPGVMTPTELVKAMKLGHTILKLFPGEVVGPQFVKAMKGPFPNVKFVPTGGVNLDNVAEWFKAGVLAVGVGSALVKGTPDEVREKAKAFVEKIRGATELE

B1: 42C2 (mouse) (antibody, V domains shown)
VH: QVTLKESGPGILQPSQTLSLTCSFSGFSLSTFGMGVVWTRQPSGKGLEWLAHIWWDDDNYYNPALKSRLTISKDTSKNQVFLKIANADTADTATYYCARIVKVLEQYFDVWGTGTTVTVSS
VL: DIMMTQSHKFMSTSVGDRVIFTCKASQDVGTAVAWYQQKSGQSPKLLIYWASTRHTGVPDRFTGSGSGTDFTLTISNVQSEDLADYFCQQYTSYPLTFGAGTKLELK
notes: Mouse IgG1 / kappa; also called 42C2 mIgG; 42C2 mAB
B2: 42C2 hIgG1 (antibody, V domains shown)
VH: B1 VH
VL: DIMMTQSHKFMSTSVGDRVIFTCKASQDVGTAVAWYQQKSGQSPKLLIYWASTRHTGVPDRFTGSGSGTDFTLTISNVQSEDLADYFCQQYTSYPLTFGAGTKLELKR
notes: Recombinant form with human IgG1 Fc
B3: 13E10 hIgG1 (antibody, V domains shown)
VH: EVKLVESGGGLVQPGGSLSLSCAASGFTFTDYYMNWVRQPPGKALEWLGFIRNKDNGYTTEYSASVKGRFTISRDNSQSILYLQMNALRAEDSATYYCTRYYFGYDGDYFDYWGQGTTLTVSS
VL: EIVLTQSPTTMAASPGEKITITCSASSSISSNYLHWYQQKAGFSPKLLIYRTSNLASGVPARFSGSGSGTSYSLTIGTMEAEDVATYYCQQGSSLPRTFGGGTKLEIKR
notes: as for B2
B4: 17D10 hIgG1 (antibody, V domains shown)
VH: QVQLQQPGAELVKPGASVKMSCKASGYTFTSYWITWVKQRPGQGLEWIGDIYPGSGSITYNEKFKTKATLTVDTSSSTAYMQLNSLTSEDSAVYYCAGLLRLTFDVWGTGTTVTVSS
VL: DIQLTQTTSSLSASLGDRVTISCRASQDISNYLNWYQQKPDGTVKLLISYTSGLHSGVPSRFSGSGSGTDYSLTISNLEQEDIATYFCQQGNTLPWTFGGGTKLEIKR
notes: Recombinant form with human IgG1 Fc; also called Human 17D10 mAB; 171D10 hIgG1
B5: 13E10 (mouse) (antibody, V domains shown)
VH: B3 VH
VL: EIVLTQSPTTMAASPGEKITITCSASSSISSNYLHWYQQKAGFSPKLLIYRTSNLASGVPARFSGSGSGTSYSLTIGTMEAEDVATYYCQQGSSLPRTFGGGTKLEIK
notes: Mouse IgG1 / kappa; also called 13E10 mIgG
B6: 17D10 (mouse) (antibody, V domains shown)
VH: B4 VH
VL: DIQLTQTTSSLSASLGDRVTISCRASQDISNYLNWYQQKPDGTVKLLISYTSGLHSGVPSRFSGSGSGTDYSLTISNLEQEDIATYFCQQGNTLPWTFGGGTKLEIK
notes: Mouse IgG1 / kappa; also called Mouse 17D10 mAB; 17D10 mIgG
B7: 17E10 (antibody, mouse IgG1, V domains shown)
VH: B4 VH
VL: B6 VL

The binders below were run against T2, DS-Cav1 (RSV control) (UniProt P03420 26-513) (assay: Octet biolayer interferometry, bottom panel titled 'anti-DS-Cav1-CompA specificity'; format and concentrations not given).
T2 construct: also called RSV F protein; RSV F
B1: no binding. B2: no binding.

Target: T1, hMPV033 antigen (ectodomain 1-472 of …)
Experiment: summary of characterisation
B3: binds. B2: binds.

Target: T1, hMPV033 antigen (ectodomain 1-472 of …)
Experiment: BLI (Octet)
B4: binds.

Target: T1, hMPV033 antigen (ectodomain 1-472 of …)
Experiment: Octet biolayer interferometry: mouse antibody captured on Protein G biosensors, CompA-hMPV033 (panel title 'Pre Fusion hMPV-F') at 10 µg/mL in solution, 120 s association and 120 s dissociation
B5: binds. B6: binds. B1: binds.

These binders were tested against T3, hMPV F protein on hMPV/A virus (human metapneumovirus, subtype A, UniProt Q6WB98 19-539) (assay: cell-based or functional assay).
B5 was tested, and the “hMPV/A neutralization assay titer, supernatant” value was > 5 log2. B7 was tested, and the “hMPV/A neutralization assay titer, supernatant” value was > 5 log2. In the case of B6, the “hMPV/A neutralization assay titer, supernatant” value is reported as > 5 log2. B1 was tested, and the “hMPV/A neutralization assay titer, supernatant” value was > 5 log2.

Target: T2, DS-Cav1 (RSV control)
Experiment: Octet biolayer interferometry, bottom panel titled 'anti-DS-Cav1-CompA specificity'; format and concentrations not given
Remark: another data set of the same source
B5: no binding. B3: no binding.

Target: T3, hMPV F protein on hMPV/A virus
Experiment: cell-based or functional assay
Remark: another data set of the same source
Target sequence in this assay (Q6WB98 19-539): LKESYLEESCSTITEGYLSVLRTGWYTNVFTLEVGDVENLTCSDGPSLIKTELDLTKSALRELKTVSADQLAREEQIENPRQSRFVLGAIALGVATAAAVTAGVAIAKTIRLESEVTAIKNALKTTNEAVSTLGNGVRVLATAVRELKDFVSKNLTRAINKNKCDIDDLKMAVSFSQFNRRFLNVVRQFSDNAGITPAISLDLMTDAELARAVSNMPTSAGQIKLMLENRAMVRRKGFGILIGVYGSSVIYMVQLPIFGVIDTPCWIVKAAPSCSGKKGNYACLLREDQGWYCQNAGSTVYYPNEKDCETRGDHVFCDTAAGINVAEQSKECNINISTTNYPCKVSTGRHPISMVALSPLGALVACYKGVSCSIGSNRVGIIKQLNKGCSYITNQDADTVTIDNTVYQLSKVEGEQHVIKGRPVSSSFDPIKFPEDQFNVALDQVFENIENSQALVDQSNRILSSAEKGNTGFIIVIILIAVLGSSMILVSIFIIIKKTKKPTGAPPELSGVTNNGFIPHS
For B5, the “IC50, final serum dilution” value was 195 ng/mL, the “IC50, original serum dilution” value was 781 ng/mL and the “hMPV/A RL Bx Titer (Log 2), microneutralization assay” value was 8 log2. With B3 the “IC50, final serum dilution” value was 97.7 ng/mL, the “IC50, original serum dilution” value was 391 ng/mL and the “hMPV/A RL Bx Titer (Log 2), microneutralization assay” value was 9 log2. For B4, the “IC50, final serum dilution” value was 34.5 ng/mL, the “IC50, original serum dilution” value was 138 ng/mL and the “hMPV/A RL Bx Titer (Log 2), microneutralization assay” value was 10.5 log2. In the case of B6, the “IC50, final serum dilution” value is reported as 48.8 ng/mL, the “IC50, original serum dilution” value is reported as 195 ng/mL and the “hMPV/A RL Bx Titer (Log 2), microneutralization assay” value is reported as 10 log2. In the case of B1, the “IC50, final serum dilution” value is reported as 97.7 ng/mL, the “IC50, original serum dilution” value is reported as 391 ng/mL and the “hMPV/A RL Bx Titer (Log 2), microneutralization assay” value is reported as 9 log2. For B2, the “IC50, final serum dilution” value was 69.1 ng/mL, the “IC50, original serum dilution” value was 276 ng/mL and the “hMPV/A RL Bx Titer (Log 2), microneutralization assay” value was 9.5 log2.

The binders below were run against T2, DS-Cav1 (RSV control) (assay: Octet biolayer interferometry, bottom panel titled 'anti-DS-Cav1-dn5B specificity'; format and concentrations not given).
B4: no binding. B6: no binding.
